Experimental data as given in patent US20080138349A1.

Assays:
FcγRIIIA = FcγRIIIA (UniProt P08637); experiment: ELISA
[1] = target: soluble monomeric FcγRIIIA, the extracellular region of FcγRIIIA joined to the linker-AVITAG sequence (UniProt P08637); experiment: yeast display FACS; 0.1 µM biotinylated FcγRIIIA-linker-avitag chased with unlabeled monomer
FcγRIIIA 158V, soluble = FcγRIIIA 158V, soluble (UniProt P08637); experiment: BIAcore, 2B6 captured by soluble CD32B
FcγRIIIA 158F, soluble = FcγRIIIA 158F, soluble (UniProt P08637); experiment: BIAcore, 2B6 captured by soluble CD32B
FcγRIIIA 158F, soluble, sequence (P08637 17-208 limits assumed): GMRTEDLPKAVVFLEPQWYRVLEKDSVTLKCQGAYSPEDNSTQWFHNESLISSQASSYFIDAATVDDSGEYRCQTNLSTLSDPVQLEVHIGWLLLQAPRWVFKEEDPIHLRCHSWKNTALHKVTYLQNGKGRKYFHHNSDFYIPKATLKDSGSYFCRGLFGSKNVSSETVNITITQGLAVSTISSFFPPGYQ

FcγRIIIA 158V, soluble, sequence (P08637 17-208 F176V limits assumed): as the sequence (P08637 17-208 limits assumed) above, with F160V counted along it
soluble monomeric FcγRIIIA, the extracellular region of FcγRIIIA joined to the linker-AVITAG sequence, sequence (P08637 17-208 limits assumed): as the sequence (P08637 17-208 limits assumed) above
FcγRIIIA, sequence (P08637 17-208 limits assumed): as above

ELISA binding increase vs wt (FcγRIIIA) [x]	loss of cell staining after 1 minute with unlabeled FcγRIIIA [1] [%]	koff (FcγRIIIA 158V, soluble) [s⁻¹]	koff (FcγRIIIA 158F, soluble) [s⁻¹]	Substance
1	50	–	–	ch4-4-20 P396L (from UniProt P01857 1-330) (antibody)
–	–	0.192	0.434	ch-mAb 2B6 (chimeric anti-CD32B), wild-type IgG1 Fc (antibody)
